Laboratory results published in US20150064204A1 (Amgen, published 2015).
Numbering of substitutions follows the chain as printed.

T1: human GITR (human, UniProt Q9Y5U5 26-241)
T1 sequence: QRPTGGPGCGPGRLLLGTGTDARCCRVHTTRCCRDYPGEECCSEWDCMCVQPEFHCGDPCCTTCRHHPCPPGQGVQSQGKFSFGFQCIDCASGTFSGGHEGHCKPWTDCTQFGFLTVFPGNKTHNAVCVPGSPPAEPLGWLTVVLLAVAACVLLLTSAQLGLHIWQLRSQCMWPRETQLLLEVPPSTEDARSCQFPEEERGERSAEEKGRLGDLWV

B1: 7A10 (antibody, human IgG1, kappa, V domains shown)
VH: QVQLVESGGGVVQPGRSLRLSCAASGFTFSSYGMHWVRQAPGKGLEWMAVIWYVGSNKYYADSVKGRFTISRDNSKNTLYLQMNSLSAEDTAVYYCARGGELGRDYYSGMDVWGQGTTVTVSS
VL: DIQMTQSPSSLSASVGDRVTITCRASQGIRNDLGWYQQKPGKAPKRLIYAASSLQSGVPSRFSGSGSGTEFTLTISSLQPEDFATYYCQQHNSYPWTFGQGTKVEIKR
notes: Parental fully human antibody; also called Ab18; SS-10944
B2: 33C9v4 (antibody, human IgG1, kappa, V domains shown)
VH: B1 VH with L4V, M48V, A49S, V54E, D62E, S87R, E101L, R104Y, D105Y, S108Y
VL: B1 VL with R46L, A50D, Q89L, N92H
notes: Engineered variant; also called Ab53; SS-16950
B3: 33C9v1 (antibody, human IgG1, kappa, V domains shown)
VH: B1 VH with L4V, M48V, A49S, V54E, S87R, E101L, R104Y, D105Y, S108Y
VL: B1 VL with R46L, A50D, Q89L, N92H
notes: Engineered variant; also called Ab50; SS-16948
B4: 33C9v5 (antibody, human IgG1, kappa, V domains shown)
VH: B1 VH with L4V, M48V, A49S, V54E, S63T, S87R, E101L, R104Y, D105Y, S108Y
VL: B1 VL with R46L, A50D, Q89L, N92H
notes: Engineered variant; also called Ab54; SS-16951
B5: 33C9v3 (antibody, human IgG1, kappa, V domains shown)
VH: B1 VH with L4V, M48V, A49S, V54E, S63T, S87R, E101L, R104Y, D105Y, S108Y
VL: B1 VL with A50D, Q89L, N92H
notes: Engineered variant; also called Ab52; SS-16949
B6: 9H6v2 (antibody, human IgG1, kappa, V domains shown)
VH: B1 VH with A23V, V37I, M48V, V54E, S87R, E101R, R104K
VL: B1 VL with R46L, A51T, Q89L, S93T
notes: Engineered variant; also called Ab45; SS-16944
B7: 7A10v3 (antibody, human IgG1, kappa, V domains shown)
VH: B1 VH with D62E, S87R
VL: B1 VL
notes: Engineered variant; also called Ab41; SS-16939
B8: 41G5 (antibody, human IgG1, kappa, V domains shown)
VH: B1 VH with M48V, V54P, S87R, D105Y, S108Y
VL: B1 VL with I21V, Q89L, S93N, E105D
notes: Parental fully human antibody; also called Ab7; SS-12428
B9: 41G5v1 (antibody, human IgG1, kappa, V domains shown)
VH: B1 VH with M48V, V54P, S87R, D105Y, S108Y
VL: B1 VL with I21V, R46L, Q89L, S93N, E105D
notes: Engineered variant; also called Ab55; SS-16952
B10: 41G5v5 (antibody, human IgG1, kappa, V domains shown)
VH: B1 VH with M48V, V54P, S63T, S87R, D105Y, S108Y
VL: B1 VL with I21V, R46L, Q89L, S93N, E105D
notes: Engineered variant; also called Ab59; SS-16955
B11: 9H6v6 (antibody, human IgG1, kappa, V domains shown)
VH: B1 VH with A23V, V37I, M48V, V54E, S63T, S87R, E101R, R104K
VL: B1 VL with R46L, A51T, Q89L, S93T
notes: Engineered variant; also called Ab49; SS-16947
B12: 41G5v4 (antibody, human IgG1, kappa, V domains shown)
VH: B1 VH with M48V, V54P, D62E, S87R, D105Y, S108Y
VL: B1 VL with I21V, R46L, Q89L, S93N, E105D
notes: Engineered variant; also called Ab58; SS-16954
B13: 9H6v4 (antibody, human IgG1, kappa, V domains shown)
VH: B1 VH with A23V, V37I, M48V, V54E, S63T, S87R, E101R, R104K
VL: B1 VL with A51T, Q89L, S93T
notes: Engineered variant; also called Ab47; SS-16945
B14: 7A10v5 (antibody, human IgG1, kappa, V domains shown)
VH: B1 VH with D62E, S87R
VL: B1 VL with R46L
notes: Engineered variant; also called Ab43; SS-16941
B15: 9H6 (antibody, human IgG1, kappa, V domains shown)
VH: B1 VH with A23V, V37I, M48V, V54E, S87R, E101R, R104K
VL: B1 VL with K45N, A51T, Q89L, S93T
notes: Parental fully human antibody; also called Ab19; SS-10945
B16: 9H6v5 (antibody, human IgG1, kappa, V domains shown)
VH: B1 VH with A23V, V37I, M48V, V54E, D62E, S87R, E101R, R104K
VL: B1 VL with R46L, A51T, Q89L, S93T
notes: Engineered variant; also called Ab48; SS-16946
B17: 33C9 (antibody, human IgG1, kappa, V domains shown)
VH: B1 VH with L4V, M48V, A49S, V54E, S87R, E101L, R104Y, D105Y, S108Y
VL: B1 VL with A50D, Q89L, N92H
notes: Parental fully human antibody; also called Ab2; SS-12413
B18: 7A10v2 (antibody, human IgG1, kappa, V domains shown)
VH: B1 VH with S87R
VL: B1 VL with R46L
notes: Engineered variant; also called Ab40; SS-16938
B19: 9H6v1 (antibody, human IgG1, kappa, V domains shown)
VH: B1 VH with A23V, V37I, M48V, V54E, S87R, E101R, R104K
VL: B1 VL with A51T, Q89L, S93T
notes: Engineered variant; also called Ab44; SS-16943
B20: 7A10v4 (antibody, human IgG1, kappa, V domains shown)
VH: B1 VH with S63T, S87R
VL: B1 VL
notes: Engineered variant; also called Ab42; SS-16940
B21: 41G5v3 (antibody, human IgG1, kappa, V domains shown)
VH: B1 VH with M48V, V54P, S63T, S87R, D105Y, S108Y
VL: B1 VL with I21V, Q89L, S93N, E105D
notes: Engineered variant; also called Ab57; SS-16953
B22: 5H7 (antibody, human IgG1, kappa, V domains shown)
VH: QVQLQESGPGLVKPSQTLSLTCTVSGGSISSGGYFWSWIRQHPGKGLEWIGYIYYSGTTYYNPSLKSRVTISIDTSKNHFSLKLSSVTAADTAVYYCARDLFYYDSSGPRGFDPWGQGTLVTVSS
VL: EIVLTQSPGTLSLSPGERATLSCRASQTVSSNYLAWYQQKPGQAPRLLIYGSSTRATGIPDRFSGSGSGTDFTLTISRLEPEDFAVYYCQQYDSSPWTFGQGTKVEIKR
notes: Parental fully human antibody; also called Ab17; SS-10943
B23: 5H7v1 (antibody, human IgG1, kappa, V domains shown)
VH: B22 VH with Q16E, H42P, H79Q, D105E
VL: B22 VL
B24: 5H7v10 (antibody, human IgG1, kappa, V domains shown)
VH: B22 VH with Q16E, H42P, H79Q
VL: B22 VL with D93E
B25: 5H7v22 (antibody, human IgG1, kappa, V domains shown)
VH: B22 VH with Q16E, H42P, H79Q, S106T, D113E
VL: B22 VL with D93E
notes: Engineered variant; also called Ab38; SS-16932
B26: 5H7v11 (antibody, human IgG1, kappa, V domains shown)
VH: B22 VH with Q16E, H42P, H79Q
VL: B22 VL with S94T
B27: 5H7v3 (antibody, human IgG1, kappa, V domains shown)
VH: B22 VH with Q16E, H42P, H79Q, D113E
VL: B22 VL
notes: Engineered variant; also called Ab27; SS-16913
B28: 5H7v7 (antibody, human IgG1, kappa, V domains shown)
VH: B22 VH with Q16E, H42P, H79Q, S106T, D113E
VL: B22 VL
notes: Engineered variant; also called Ab29; SS-16917
B29: 5H7v17 (antibody, human IgG1, kappa, V domains shown)
VH: B22 VH with Q16E, H42P, H79Q, S106T
VL: B22 VL with S94T
B30: 5H7v13 (antibody, human IgG1, kappa, V domains shown)
VH: B22 VH with Q16E, H42P, H79Q, S106T
VL: B22 VL with D93E
B31: 5H7v14 (antibody, human IgG1, kappa, V domains shown)
VH: B22 VH with Q16E, H42P, H79Q, D113E
VL: B22 VL with D93E
notes: Engineered variant; also called Ab34; SS-16924
B32: 5H7v18 (antibody, human IgG1, kappa, V domains shown)
VH: B22 VH with Q16E, H42P, H79Q, D113E
VL: B22 VL with S94T
notes: Engineered variant; also called Ab36; SS-16928
B33: 5H7v5 (antibody, human IgG1, kappa, V domains shown)
VH: B22 VH with Q16E, H42P, H79Q, D105E, D113E
VL: B22 VL

What follows are binders tested against T1, human GITR (assay: cell-based or functional assay).

Proliferation (Fold over CD3)	Proliferation EC50	Binder
3.4 fold over CD3	0.012 µg/mL	B1
2.6 fold over CD3	0.017 µg/mL	B2
2.1 fold over CD3	0.018 µg/mL	B3
2.5 fold over CD3	0.018 µg/mL	B4
3.1 fold over CD3	0.025 µg/mL	B5
2.2 fold over CD3	0.019 µg/mL	B6
55 fold over CD3	0.046 µg/mL	B7
3.7 fold over CD3	0.004 µg/mL	B8
2.9 fold over CD3	0.017 µg/mL	B9
2.5 fold over CD3	0.012 µg/mL	B10
1.5 fold over CD3	0.011 µg/mL	B11
2.2 fold over CD3	0.015 µg/mL	B12
3.3 fold over CD3	0.007 µg/mL	B13
0.6 fold over CD3	0.02 µg/mL	B14
3 fold over CD3	0.007 µg/mL	B15
1.9 fold over CD3	0.011 µg/mL	B16
2.7 fold over CD3	0.01 µg/mL	B17

Proliferation (Fold over CD3)	Proliferation EC50	Binder
0.7 fold over CD3	0.043 µg/mL	B18
3.2 fold over CD3	0.004 µg/mL	B19
60 fold over CD3	0.006 µg/mL	B20
3.4 fold over CD3	0.007 µg/mL	B21
3.4 fold over CD3	0.008 µg/mL	B22
1 fold over CD3	0.033 µg/mL	B23
0.6 fold over CD3	0.039 µg/mL	B24
1.7 fold over CD3	0.027 µg/mL	B25
2 fold over CD3	0.032 µg/mL	B26
3.2 fold over CD3	0.015 µg/mL	B27
2.1 fold over CD3	0.028 µg/mL	B28
3 fold over CD3	0.024 µg/mL	B29
1.2 fold over CD3	0.113 µg/mL	B30
1.9 fold over CD3	0.031 µg/mL	B31
2.7 fold over CD3	0.012 µg/mL	B32
1.4 fold over CD3	0.021 µg/mL	B33

These binders were tested against T1, human GITR (assay: flow cytometry on activated human T cells).

EC50	Binder
0.067 µg/mL	B1
0.082 µg/mL	B2
0.078 µg/mL	B3
0.068 µg/mL	B4
0.056 µg/mL	B5
0.423 µg/mL	B6
0.003 µg/mL	B7
0.055 µg/mL	B8
0.06 µg/mL	B9
0.064 µg/mL	B10
0.411 µg/mL	B11
0.068 µg/mL	B12
0.095 µg/mL	B13
0.783 µg/mL	B14
0.134 µg/mL	B15
0.38 µg/mL	B16
0.06 µg/mL	B17
0.861 µg/mL	B18
0.144 µg/mL	B19
0.002 µg/mL	B20
0.06 µg/mL	B21
0.303 µg/mL	B22
0.786 µg/mL	B25
0.293 µg/mL	B27
0.461 µg/mL	B28
0.995 µg/mL	B31
0.804 µg/mL	B32
